In patent JP2008532476A (dated 2008) one finds Kd data, which are given here for one molecule.

This test deals with T1, recombinant mouse Tie1-Fc (mouse, UniProt Q06806 23-755).
T1 construct: extracellular domain; also called mouse Tie1-Fc antigen; mouse Tie1-Fc fusion protein; not shown: Fc
T1 sequence (looked up): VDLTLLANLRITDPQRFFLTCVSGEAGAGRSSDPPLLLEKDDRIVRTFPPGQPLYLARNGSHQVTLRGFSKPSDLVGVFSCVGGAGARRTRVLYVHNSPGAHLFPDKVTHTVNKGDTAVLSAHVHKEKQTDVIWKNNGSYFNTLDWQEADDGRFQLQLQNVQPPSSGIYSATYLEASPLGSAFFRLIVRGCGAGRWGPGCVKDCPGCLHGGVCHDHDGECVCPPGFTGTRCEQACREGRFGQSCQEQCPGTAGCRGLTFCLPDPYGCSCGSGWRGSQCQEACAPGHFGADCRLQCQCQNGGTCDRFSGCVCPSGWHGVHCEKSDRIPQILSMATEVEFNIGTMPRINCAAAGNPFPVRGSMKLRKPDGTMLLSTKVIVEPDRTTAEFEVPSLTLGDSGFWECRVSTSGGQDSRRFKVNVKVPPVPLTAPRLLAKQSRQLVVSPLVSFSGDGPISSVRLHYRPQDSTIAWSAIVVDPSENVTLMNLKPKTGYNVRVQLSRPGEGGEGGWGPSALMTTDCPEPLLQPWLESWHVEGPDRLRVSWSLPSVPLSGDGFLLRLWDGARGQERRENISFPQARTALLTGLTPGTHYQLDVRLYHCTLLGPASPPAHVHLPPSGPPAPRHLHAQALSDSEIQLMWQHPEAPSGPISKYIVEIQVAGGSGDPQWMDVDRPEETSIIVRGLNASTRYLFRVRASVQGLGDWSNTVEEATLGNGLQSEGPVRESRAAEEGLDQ
Description: SPR (BIAcore 3000), Fab as analyte over mouse Tie1-Fc immobilised on a sensor chip. For orientation: In SPR one partner is held on a chip, and binding of the other changes the refractive index at the surface.

B1: E3b Fab (germline E3 (DX-2220) Fab) (Fab, V domains shown)
VH: EVQLLESGGGLVQPGGSLRLSCAASGFTFSMYGMVWVRQAPGKGLEWVSVISPSGGNTGYADSVKGRFTISRDNSKNTLYLQMNSLRAEDTAVYYCARAPRGYSYGYYYWGQGTLVTVSS
VL: DIQMTQSPSSLSASVGDRVTITCRASQGIGHYLAWYQQKPGKVPKLLIYTASTLQSGVPSRFSGSGSGTDFTLTISSLQPEDVATYYCQQFNSYPHTFGQGTRLEIK
By Kd is commonly meant the free concentration of one partner at which half of the binding sites on the other are occupied at equilibrium, for simple one-to-one binding. Regarding B1, the dissociation constant Kd is approximately 3 nM.
